Source: patent US20150344570A1 (published 2015)

T1: FcγRIIa H (human, UniProt P12318 34-217)
T1 construct: extracellular domain; also called FcgRIIa H; FcγRIIa type H
T1 sequence (looked up): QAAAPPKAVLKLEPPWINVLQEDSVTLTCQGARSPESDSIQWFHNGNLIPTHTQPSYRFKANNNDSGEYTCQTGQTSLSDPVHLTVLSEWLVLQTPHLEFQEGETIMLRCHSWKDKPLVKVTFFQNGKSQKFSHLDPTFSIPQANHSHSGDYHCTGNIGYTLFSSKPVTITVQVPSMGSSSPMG

T2: FcγRIIb (human, UniProt P31994 43-217)
T2 construct: extracellular domain; also called FcgRIIb; 2b
T2 sequence (looked up): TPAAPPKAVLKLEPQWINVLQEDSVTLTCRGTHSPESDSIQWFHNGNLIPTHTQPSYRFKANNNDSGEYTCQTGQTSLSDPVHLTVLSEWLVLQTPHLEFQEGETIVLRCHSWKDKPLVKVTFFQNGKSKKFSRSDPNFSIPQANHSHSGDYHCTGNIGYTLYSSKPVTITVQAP


Tests used:
[1] = molecular target: T1, FcγRIIa H; assay: SPR (Biacore); He/Con_2aH divided by He/Con_2b (FcγRIIa H over FcγRIIb)
[2] = molecular target: T2, FcγRIIb; assay: SPR (Biacore), antibody captured, FcγR analyte; binding relative to GpH7-A5/GpH7-B3/GpL16-k0 = 100
[3] = molecular target: T1, FcγRIIa H; assay: as above

Binder	He_2aH/2b (IIaH/IIb) [1]	He/Con_2b [2]	He/Con_2aH [3]
GpH7-A5/GpH7-B3 variant G237_02A/GpL16-k0 (antibody, human IgG1, kappa, Heterodimerized antibody, alteration in one H chain only; also called He Ab G237A) heavy 1: not shown heavy 2: not shown light: DIVMTQSPLSLPVTPGEPASISCQASESLVHSNRNTYLHWYLQKPGQSPQLLIYKVSNRFSGVPDRFSGSGSGTDFTLKISRVEAEDVGVYYCSQNTHVPPTFGQGTKVEIERTVAAPSVFIFPPSDEQLKSGTASVVCLLNNFYPREAKVQWKVDNALQSGNSQESVTEQDSKDSTYSLSSTLTLSKADYEKHKVYACEVTHQGLSSPVTKSFNRGEC	0.27 ratio	124 % of control	34 % of control
GpH7-A5/GpH7-B3 variant L234_09D/GpL16-k0 (antibody, human IgG1, kappa, Heterodimerized antibody, alteration in one H chain only; also called He Ab L234D) heavy 1: not shown heavy 2: not shown light: DIVMTQSPLSLPVTPGEPASISCQASESLVHSNRNTYLHWYLQKPGQSPQLLIYKVSNRFSGVPDRFSGSGSGTDFTLKISRVEAEDVGVYYCSQNTHVPPTFGQGTKVEIERTVAAPSVFIFPPSDEQLKSGTASVVCLLNNFYPREAKVQWKVDNALQSGNSQESVTEQDSKDSTYSLSSTLTLSKADYEKHKVYACEVTHQGLSSPVTKSFNRGEC	0.6 ratio	150 % of control	89.9 % of control
GpH7-A5/GpH7-B3 variant G237_11K/GpL16-k0 (antibody, human IgG1, kappa, Heterodimerized antibody, alteration in one H chain only; also called He Ab G237K) heavy 1: not shown heavy 2: not shown light: DIVMTQSPLSLPVTPGEPASISCQASESLVHSNRNTYLHWYLQKPGQSPQLLIYKVSNRFSGVPDRFSGSGSGTDFTLKISRVEAEDVGVYYCSQNTHVPPTFGQGTKVEIERTVAAPSVFIFPPSDEQLKSGTASVVCLLNNFYPREAKVQWKVDNALQSGNSQESVTEQDSKDSTYSLSSTLTLSKADYEKHKVYACEVTHQGLSSPVTKSFNRGEC	0.64 ratio	9 % of control	5.8 % of control
GpH7-A5/GpH7-B3 variant G237_15Y/GpL16-k0 (antibody, human IgG1, kappa, Heterodimerized antibody, alteration in one H chain only; also called He Ab G237Y) heavy 1: not shown heavy 2: not shown light: DIVMTQSPLSLPVTPGEPASISCQASESLVHSNRNTYLHWYLQKPGQSPQLLIYKVSNRFSGVPDRFSGSGSGTDFTLKISRVEAEDVGVYYCSQNTHVPPTFGQGTKVEIERTVAAPSVFIFPPSDEQLKSGTASVVCLLNNFYPREAKVQWKVDNALQSGNSQESVTEQDSKDSTYSLSSTLTLSKADYEKHKVYACEVTHQGLSSPVTKSFNRGEC	0.17 ratio	152 % of control	25.4 % of control
GpH7-A5/GpH7-B3 variant G237_13S/GpL16-k0 (antibody, human IgG1, kappa, Heterodimerized antibody, alteration in one H chain only; also called He Ab G237S) heavy 1: not shown heavy 2: not shown light: DIVMTQSPLSLPVTPGEPASISCQASESLVHSNRNTYLHWYLQKPGQSPQLLIYKVSNRFSGVPDRFSGSGSGTDFTLKISRVEAEDVGVYYCSQNTHVPPTFGQGTKVEIERTVAAPSVFIFPPSDEQLKSGTASVVCLLNNFYPREAKVQWKVDNALQSGNSQESVTEQDSKDSTYSLSSTLTLSKADYEKHKVYACEVTHQGLSSPVTKSFNRGEC	0.27 ratio	111 % of control	29.8 % of control
GpH7-A5/GpH7-B3 variant G237_16H/GpL16-k0 (antibody, human IgG1, kappa, Heterodimerized antibody, alteration in one H chain only; also called He Ab G237H) heavy 1: not shown heavy 2: not shown light: DIVMTQSPLSLPVTPGEPASISCQASESLVHSNRNTYLHWYLQKPGQSPQLLIYKVSNRFSGVPDRFSGSGSGTDFTLKISRVEAEDVGVYYCSQNTHVPPTFGQGTKVEIERTVAAPSVFIFPPSDEQLKSGTASVVCLLNNFYPREAKVQWKVDNALQSGNSQESVTEQDSKDSTYSLSSTLTLSKADYEKHKVYACEVTHQGLSSPVTKSFNRGEC	0.3 ratio	55.2 % of control	16.4 % of control
GpH7-A5/GpH7-B3 variant G237_19Q/GpL16-k0 (antibody, human IgG1, kappa, Heterodimerized antibody, alteration in one H chain only; also called He Ab G237Q) heavy 1: not shown heavy 2: not shown light: DIVMTQSPLSLPVTPGEPASISCQASESLVHSNRNTYLHWYLQKPGQSPQLLIYKVSNRFSGVPDRFSGSGSGTDFTLKISRVEAEDVGVYYCSQNTHVPPTFGQGTKVEIERTVAAPSVFIFPPSDEQLKSGTASVVCLLNNFYPREAKVQWKVDNALQSGNSQESVTEQDSKDSTYSLSSTLTLSKADYEKHKVYACEVTHQGLSSPVTKSFNRGEC	0.25 ratio	108 % of control	26.5 % of control
GpH7-A5/GpH7-B3 variant G237_08L/GpL16-k0 (antibody, human IgG1, kappa, Heterodimerized antibody, alteration in one H chain only; also called He Ab G237L) heavy 1: not shown heavy 2: not shown light: DIVMTQSPLSLPVTPGEPASISCQASESLVHSNRNTYLHWYLQKPGQSPQLLIYKVSNRFSGVPDRFSGSGSGTDFTLKISRVEAEDVGVYYCSQNTHVPPTFGQGTKVEIERTVAAPSVFIFPPSDEQLKSGTASVVCLLNNFYPREAKVQWKVDNALQSGNSQESVTEQDSKDSTYSLSSTLTLSKADYEKHKVYACEVTHQGLSSPVTKSFNRGEC	0.09 ratio	148 % of control	13.9 % of control
GpH7-A5/GpH7-B3 variant G237_06M/GpL16-k0 (antibody, human IgG1, kappa, Heterodimerized antibody, alteration in one H chain only; also called He Ab G237M) heavy 1: not shown heavy 2: not shown light: DIVMTQSPLSLPVTPGEPASISCQASESLVHSNRNTYLHWYLQKPGQSPQLLIYKVSNRFSGVPDRFSGSGSGTDFTLKISRVEAEDVGVYYCSQNTHVPPTFGQGTKVEIERTVAAPSVFIFPPSDEQLKSGTASVVCLLNNFYPREAKVQWKVDNALQSGNSQESVTEQDSKDSTYSLSSTLTLSKADYEKHKVYACEVTHQGLSSPVTKSFNRGEC	0.14 ratio	130 % of control	17.8 % of control
GpH7-A5/GpH7-B3 variant G237_18N/GpL16-k0 (antibody, human IgG1, kappa, Heterodimerized antibody, alteration in one H chain only; also called He Ab G237N) heavy 1: not shown heavy 2: not shown light: DIVMTQSPLSLPVTPGEPASISCQASESLVHSNRNTYLHWYLQKPGQSPQLLIYKVSNRFSGVPDRFSGSGSGTDFTLKISRVEAEDVGVYYCSQNTHVPPTFGQGTKVEIERTVAAPSVFIFPPSDEQLKSGTASVVCLLNNFYPREAKVQWKVDNALQSGNSQESVTEQDSKDSTYSLSSTLTLSKADYEKHKVYACEVTHQGLSSPVTKSFNRGEC	0.08 ratio	180 % of control	15.2 % of control
GpH7-A5/GpH7-B3 variant G237_10E/GpL16-k0 (antibody, human IgG1, kappa, Heterodimerized antibody, alteration in one H chain only; also called He Ab G237E) heavy 1: not shown heavy 2: not shown light: DIVMTQSPLSLPVTPGEPASISCQASESLVHSNRNTYLHWYLQKPGQSPQLLIYKVSNRFSGVPDRFSGSGSGTDFTLKISRVEAEDVGVYYCSQNTHVPPTFGQGTKVEIERTVAAPSVFIFPPSDEQLKSGTASVVCLLNNFYPREAKVQWKVDNALQSGNSQESVTEQDSKDSTYSLSSTLTLSKADYEKHKVYACEVTHQGLSSPVTKSFNRGEC	0.13 ratio	114 % of control	15.1 % of control
GpH7-A5/GpH7-B3 variant G237_03V/GpL16-k0 (antibody, human IgG1, kappa, Heterodimerized antibody, alteration in one H chain only; also called He Ab G237V) heavy 1: not shown heavy 2: not shown light: DIVMTQSPLSLPVTPGEPASISCQASESLVHSNRNTYLHWYLQKPGQSPQLLIYKVSNRFSGVPDRFSGSGSGTDFTLKISRVEAEDVGVYYCSQNTHVPPTFGQGTKVEIERTVAAPSVFIFPPSDEQLKSGTASVVCLLNNFYPREAKVQWKVDNALQSGNSQESVTEQDSKDSTYSLSSTLTLSKADYEKHKVYACEVTHQGLSSPVTKSFNRGEC	0.64 ratio	61.4 % of control	39.4 % of control
GpH7-A5/GpH7-B3 variant G236_09D/GpL16-k0 (antibody, human IgG1, kappa, Heterodimerized antibody, alteration in one H chain only; also called He Ab G236D) heavy 1: not shown heavy 2: not shown light: DIVMTQSPLSLPVTPGEPASISCQASESLVHSNRNTYLHWYLQKPGQSPQLLIYKVSNRFSGVPDRFSGSGSGTDFTLKISRVEAEDVGVYYCSQNTHVPPTFGQGTKVEIERTVAAPSVFIFPPSDEQLKSGTASVVCLLNNFYPREAKVQWKVDNALQSGNSQESVTEQDSKDSTYSLSSTLTLSKADYEKHKVYACEVTHQGLSSPVTKSFNRGEC	0.54 ratio	167 % of control	89.8 % of control
GpH7-A5/GpH7-B3 variant G237_09D/GpL16-k0 (antibody, human IgG1, kappa, Heterodimerized antibody, alteration in one H chain only; also called He Ab G237D) heavy 1: not shown heavy 2: not shown light: DIVMTQSPLSLPVTPGEPASISCQASESLVHSNRNTYLHWYLQKPGQSPQLLIYKVSNRFSGVPDRFSGSGSGTDFTLKISRVEAEDVGVYYCSQNTHVPPTFGQGTKVEIERTVAAPSVFIFPPSDEQLKSGTASVVCLLNNFYPREAKVQWKVDNALQSGNSQESVTEQDSKDSTYSLSSTLTLSKADYEKHKVYACEVTHQGLSSPVTKSFNRGEC	0.05 ratio	223 % of control	11.1 % of control
GpH7-A5/GpH7-B3 variant G237_04F/GpL16-k0 (antibody, human IgG1, kappa, Heterodimerized antibody, alteration in one H chain only; also called He Ab G237F) heavy 1: not shown heavy 2: not shown light: DIVMTQSPLSLPVTPGEPASISCQASESLVHSNRNTYLHWYLQKPGQSPQLLIYKVSNRFSGVPDRFSGSGSGTDFTLKISRVEAEDVGVYYCSQNTHVPPTFGQGTKVEIERTVAAPSVFIFPPSDEQLKSGTASVVCLLNNFYPREAKVQWKVDNALQSGNSQESVTEQDSKDSTYSLSSTLTLSKADYEKHKVYACEVTHQGLSSPVTKSFNRGEC	0.28 ratio	149 % of control	41.4 % of control
GpH7-A5/GpH7-B3 variant G237_12R/GpL16-k0 (antibody, human IgG1, kappa, Heterodimerized antibody, alteration in one H chain only; also called He Ab G237R) heavy 1: not shown heavy 2: not shown light: DIVMTQSPLSLPVTPGEPASISCQASESLVHSNRNTYLHWYLQKPGQSPQLLIYKVSNRFSGVPDRFSGSGSGTDFTLKISRVEAEDVGVYYCSQNTHVPPTFGQGTKVEIERTVAAPSVFIFPPSDEQLKSGTASVVCLLNNFYPREAKVQWKVDNALQSGNSQESVTEQDSKDSTYSLSSTLTLSKADYEKHKVYACEVTHQGLSSPVTKSFNRGEC	0.76 ratio		7.5 % of control
GpH7-A5/GpH7-B3 variant G237_20W/GpL16-k0 (antibody, human IgG1, kappa, Heterodimerized antibody, alteration in one H chain only; also called He Ab G237W) heavy 1: not shown heavy 2: not shown light: DIVMTQSPLSLPVTPGEPASISCQASESLVHSNRNTYLHWYLQKPGQSPQLLIYKVSNRFSGVPDRFSGSGSGTDFTLKISRVEAEDVGVYYCSQNTHVPPTFGQGTKVEIERTVAAPSVFIFPPSDEQLKSGTASVVCLLNNFYPREAKVQWKVDNALQSGNSQESVTEQDSKDSTYSLSSTLTLSKADYEKHKVYACEVTHQGLSSPVTKSFNRGEC	0.16 ratio	193 % of control	31.6 % of control
GpH7-A5/GpH7-B3 variant G237_14T/GpL16-k0 (antibody, human IgG1, kappa, Heterodimerized antibody, alteration in one H chain only; also called He Ab G237T) heavy 1: not shown heavy 2: not shown light: DIVMTQSPLSLPVTPGEPASISCQASESLVHSNRNTYLHWYLQKPGQSPQLLIYKVSNRFSGVPDRFSGSGSGTDFTLKISRVEAEDVGVYYCSQNTHVPPTFGQGTKVEIERTVAAPSVFIFPPSDEQLKSGTASVVCLLNNFYPREAKVQWKVDNALQSGNSQESVTEQDSKDSTYSLSSTLTLSKADYEKHKVYACEVTHQGLSSPVTKSFNRGEC	0.58 ratio	54.8 % of control	31.8 % of control
